For one data set, the system named is ERK in WM266.4 cells. The experiment in a line: ERK activity, Western blot with ppERK antibody. Format: cell-based, human. To be noted: compound at 10 μM. Here is the method: FIG. 3B. Inhibition of ERK in melanoma cell lines using pharmacological reagents. WM266.4 or A375P cells were treated with 10 μM U0126, 10 μM BAY 43-9006 or DMSO as a control. Equivalent amounts of cellular proteins were resolved on SDS-gels and the levels of active ERK were determined using the ppERK antibody.
FIG. 6. Ablation of BRAF, but not CRAF blocks ERK activity in melanoma cells. WM-266.4 or Colo 829 cells were treated with a BRAF specific siRNA probe (BRAF), or the scrambled control (sBRAF), or a CRAF specific probe (CRAF), or its scrambled control (sCRAF), or oligofectamine (oligo) or left untreated (control) as indicated. The cells were incubated for the times indicated, and the Colo 829 cells were treated for 24 hours. The levels of ERK activity in equivalent amounts of cell extract was determined by Western blotting with the ppERK antibody.
In order to validate BRAF as a target in cancer, it is first tested whether the growth of cells that express activated, mutant forms of BRAF required the RAF-MEK-ERK signaling pathway for growth. To this end, melanoma and colorectal cell lines that harbour mutations in the BRAF gene are treated with pharmacological agents that block signaling through this pathway. Two compounds are tested. One is the compound U0126, which is a MEK inhibitor and which therefore uncouples RAF-ERK signaling in cells (Sebolt-Leopold et al., 1999). […]

The test system of another data set is ERK in Mawi. To be noted: colorectal, Ras wt, B-Raf V599E. An excerpt:
(§1) The second approach is to examine the effects of the compound U0126, an inhibitor of MEK1/2, the only known substrates for B-Raf.

A further data set deals with ERK in SK-MEL-28. The note with it: SK-MEL-28, melanoma, B-Raf V599E.
Text: as §1

The next data set relates to WM-266-4/WM-115. To be noted: WM-266-4/WM-115, melanoma, B-Raf V599D.
Text: as §1

The next data set relates to ERK in WM-266-4/WM-115. The note with it: WM-266-4/WM-115, melanoma, B-Raf V599D.
Text: as §1

In a further data set the test system is SK-MEL-28. To be noted: SK-MEL-28, melanoma, B-Raf V599E.
Text: as §1

Another data set deals with cellular Ras (human). The data set can be described thus: cell-based or functional assay.

The results in this text go back to patent US8580497B2, “Methods for detection of the oncogenic T1796A B-Raf mutation” (The Wellcome Trust, priority 2001, dated 2013).

For the compound `CNC(=O)c1cc(Oc2ccc(NC(=O)Nc3ccc(Cl)c(C(F)(F)F)c3)cc2)ccn1` [BAY 43-9006], the “ERK activity (ppERK Western blot)” value in the data set on ERK in WM266.4 cells is recorded as “strongly suppressed”.
For `N#CC(=C(/N)Sc1ccccc1N)/C(C#N)=C(\N)Sc1ccccc1N` [U0126], the “UO/ ERK-inhib” value in the data set on ERK in Mawi, in the data set on ERK in SK-MEL-28 and with ERK in WM-266-4/WM-115 was over 90% throughout. Also, the “U0 inhibit S” value with WM-266-4/WM-115 was over 99%; in the data set with SK-MEL-28, 98%. In the data set on ERK in WM266.4 cells, the “ERK activity (ppERK Western blot)” value is listed as “strongly suppressed”.
Take G463V B-Raf (myc-epitope tagged): in the data set on oncogenic Ras (V12Ras), the “^V12Ras stimulated kinase activity of B-Raf (immunoprecipitation kinase cascade assay, GST-MEK, GST-ERK and MBP as sequential substrates)” value is “All five mutants are stimulated by oncogenic Ras (^V12Ras). However, the fold activation for each of the mutants is reduced compared with wild-type B-Raf”.
Turning to G468A B-Raf (myc-epitope tagged), the “^V12Ras stimulated kinase activity of B-Raf (immunoprecipitation kinase cascade assay, GST-MEK, GST-ERK and MBP as sequential substrates)” value in the data set with oncogenic Ras (V12Ras) is “All five mutants are stimulated by oncogenic Ras (^V12Ras). However, the fold activation for each of the mutants is reduced compared with wild-type B-Raf”.
Still for that read-out and setting: the entry for G595R B-Raf (myc-epitope tagged) is “^G595RB-Raf is also stimulated by ^V12Ras, but the activation was very weak, probably due to the low starting levels”; for L596V B-Raf (myc-epitope tagged) it is “All five mutants are stimulated by oncogenic Ras (^V12Ras). However, the fold activation for each of the mutants is reduced compared with wild-type B-Raf”; for V599E B-Raf (myc-epitope tagged) it is “the fold activation for each of the mutants is reduced compared with wild-type B-Raf (See FIG. 1A, B) and is particularly small in the case of ^V599EB-Raf”.
With monoclonal antibody Y13-259, in the data set with cellular Ras (human), the Y13-259 S-phase inhibition (percentage of cells that do not incorporate BrdU) after micro-injection; A2058 melanoma cells, Ras status blank, B-Raf V599E is 0%; the Y13-259 S-phase inhibition (percentage of cells that do not incorporate BrdU) after micro-injection; CaCO2 colorectal cells, Ras wt, B-Raf wt stood at 60%; the Y13-259 S-phase inhibition (percentage of cells that do not incorporate BrdU) after micro-injection; DLD1 colorectal cells, Ras K13Asp/wt, B-Raf wt is 40%; the Y13-259 S-phase inhibition (percentage of cells that do not incorporate BrdU) after micro-injection; HCT-116 colorectal cells, Ras K13 Asp, B-Raf wt stood at 95%. In addition, in the data set with cellular Ras (human), the Y13-259 S-phase inhibition (percentage of cells that do not incorporate BrdU) after micro-injection; HMV11-Riken melanoma cells, Ras status blank, B-Raf wt came to 100%; the Y13-259 S-phase inhibition (percentage of cells that do not incorporate BrdU) after micro-injection; HT29 colorectal cells, Ras wt, B-Raf V599E was found to be 15%; the Y13-259 S-phase inhibition (percentage of cells that do not incorporate BrdU) after micro-injection; JW2 colorectal cells, Ras K12, B-Raf wt is 79%; the Y13-259 S-phase inhibition (percentage of cells that do not incorporate BrdU) after micro-injection; LS174T colorectal cells, Ras K12Asp/wt, B-Raf wt came out at 84%. In the data set with cellular Ras (human), this compound returned a Y13-259 S-phase inhibition (percentage of cells that do not incorporate BrdU) after micro-injection; LS411N colorectal cells, Ras status blank, B-Raf V599E (first value) of 0%; a Y13-259 S-phase inhibition (percentage of cells that do not incorporate BrdU) after micro-injection; LS411N colorectal cells, Ras status blank, B-Raf V599E (second value) of 0%; a Y13-259 S-phase inhibition (percentage of cells that do not incorporate BrdU) after micro-injection; Malme melanoma cells, Ras status blank, B-Raf V599E of 0%; a Y13-259 S-phase inhibition (percentage of cells that do not incorporate BrdU) after micro-injection; Mawi colorectal cells, Ras wt, B-Raf V599E of 5%. In the data set with cellular Ras (human), this compound registered a Y13-259 S-phase inhibition (percentage of cells that do not incorporate BrdU) after micro-injection; NCI-H2087 NSCLC cell line pair, Ras onc, B-Raf L596V of 77%; a Y13-259 S-phase inhibition (percentage of cells that do not incorporate BrdU) after micro-injection; SK-MEL-28 melanoma cells, Ras b, B-Raf V599E of 4%; a Y13-259 S-phase inhibition (percentage of cells that do not incorporate BrdU) after micro-injection; SK-Mel2 melanoma cells, Ras status blank, B-Raf wt of 70%; a Y13-259 S-phase inhibition (percentage of cells that do not incorporate BrdU) after micro-injection; SW480 colorectal cells, Ras K12, B-Raf wt of 57%. In the data set with cellular Ras (human), the Y13-259 S-phase inhibition (percentage of cells that do not incorporate BrdU) after micro-injection; SW620 colorectal cells, Ras onc, B-Raf wt was determined as 92%; the Y13-259 S-phase inhibition (percentage of cells that do not incorporate BrdU) after micro-injection; WM-266-4/WM-115 melanoma cells, Ras b, B-Raf V599D stood at 10%; the Y13-259 S-phase inhibition (percentage of cells that do not incorporate BrdU) after micro-injection; colo205 colorectal cells, Ras wt, B-Raf V599E stood at 3%; the Y13-259 S-phase inhibition (percentage of cells that do not incorporate BrdU) after micro-injection; colo741 colorectal cells, Ras status blank, B-Raf V599E came out at 0%.
